Biological target: CCANdeltaCT (CENP-LN, CENP-HIKM, CENP-OPQUR; no CENP-C, no CENP-TWSX) (Homo sapiens, UniProt Q8N0S6;Q96H22;Q9H3R5;Q92674;Q9BS16;Q9NSP4;Q9BU64;Q6IPU0;Q7L2Z9;Q71F23;Q13352 …)
Test: EMSA; 300 mM NaCl; EMSA: 20 mM HEPES-Na pH 7.5, 300 mM NaCl, 0.5 mM TCEP, 10 min on ice, 1% agarose in 0.5x TAE; SEC: Superose 6 (analytical SEC buffer not given in the material)
Conditions: protein: recombinant; tags: His6 C-term on CENP-N and CENP-Q; copies: 1;1;1;1;1;1;1;1;1;1;1; blunt

B1: 147 bp DNA (Widom 601) (dsDNA)
DNA 1: ATCGAGAATCCCGGTGCCGAGGCCGCTCAATTGGTCGTAGACAGCTCTAGCACCGCTTAAACGCACGTACGCGCTGTCCCCCGCGTTTTAACCGCCAAGGGGATTACTCCCTAGTCTCCAGGCACGTGTCACATATATACATCCGAT
DNA 2: ATCGGATGTATATATGTGACACGTGCCTGGAGACTAGGGAGTAATCCCCTTGGCGGTTAAAACGCGGGGGACAGCGCGTACGTGCGTTTAAGCGGTGCTAGAGCTGTCTACGACCAATTGAGCGGCCTCGGCACCGGGATTCTCGAT
Question: Does B1 bind?
Answer: binds

— article PMC9463443
